Data taken from US11492376B2, “Toxoplasma gondii GRA8-derived recombinant peptides and composition for preventing or treating cancer comprising the same” (Industry—University Cooperation Foundation Hanyang …, priority 2019, dated 2022).

Experiments:
[1] = system: mitochondrial targeting of GRA8; test: Subcellular fractionation: mitochondrial localization of GRA8; type: cell-based; conditions: 10 μM peptide, within 6 hours of incubation; 293T cells or BMDM
Description: (§1) FIGS. 2A, 2B, 2C, 2D and 2E show the design and expression of an ATRAM-conjugated multifunctional GRA8 peptide (rATRAM-G8-M/AS)-based protein [(A) Subcellular fractionation of 293T cells was performed by expression of GST-GRA8 WT or incubation of WT rGRA8 with (1 μg/ml) BMDM and treatment with several Tat-GRA8 peptides for 6 hours (10 μM). Mitochondrial and cytosolic fractions were fractionated and analyzed for expression of GST by IB. The purity of the fractions was confirmed by blotting for VDAC (mitochondrial protein) and actin (cytosolic protein). (B) A mammalian GST-GRA8 construct was transfected into 293T cells for 12 hours with V5-ATP5A1 or Flag-SIRT3, and treated with several Tat-GRA8 peptides (10 μM) for 6 hours. The 293T cells were used for GST pulldown, followed by IB with αV5 or αFlag. WCL was used for IB with αGST, αV5, αFlag or αActin. (C) The schematic design of ATRAM-GRA8-M/AS and its mutants [ATRAM-G8-M/AS (SEQ ID NO: 1), ATRAM-G8-M (SEQ ID NO: 2), ATRAM (SEQ ID NO: 3)]. (D) 6×His-rATRAM-GRA8-M/AS purified with bacteria and its mutants were analyzed by Coomassie blue staining (left) or αHis immunoblotting (IB; right). (E) BMDM was incubated with rATRAM-GRA8-M/AS and its mutant (20 μg/ml) for indicated times, and cell viability was then measured by an MMT assay. Data represents four independent experiments with similar results (A, B, D and E)]. […]

[2] = system: GRA8-ATP5A1/SIRT3 interaction; test: GST pulldown of GRA8-ATP5A1/SIRT3 interaction in 293T cells; type: cell-based; conditions: 10 μM peptide, within 6 hours of incubation
Description: as §1

HCT116 cells = test: MTT assay of cell viability, HCT116 cells; type: cell-based, human
Description: (§2) FIGS. 1A, 1B and 1C: confirms that rGRA8 treatment increases HCT116 cell death by mitochondria pathways [(A and B). Various cancer cells were incubated with WT rGRA8 (20 μg/ml) and its mutants for indicated times and then cell viability was measured by MTT analysis (upper) and αATP5A1, αSIRT3 or αActin immunoblotting (lower) was performed. […] The cells were incubated with WT rGRA8 for indicated times and subjected to IP with αLys-AC or αHis and IB with αATP5A1, αATP5C1, αSIRT3, αPGC-1, αPKCα or αActin. Data represents five independent experiments with similar results. Significant differences were determined by comparison with rVector treatment (** P<0.01; *** P<0.001)].
FIGS. 4A, 4B, 4C, 4D and 4E show HCT116 cell death by rATRAM-GRA8-M/AS-induced mitochondrial activation [(A and B) HCT116 cells were incubated with WT rGRA8 or rATRAM-GRA8-M/AS and its mutants for indicated times, and then cell viability was measured with an MTT assay. […] The cells were stimulated with rATRAM-GRA8-M/AS for 1 day and subjected to enzymatic activity of OXPHOS V, and (C) MitoTracker fluorescence signals were assessed by flow cytometry. (D) A bar graph indicates a mitochondrial mass (MFI), and (E) the mtDNA content of BMDM was measured by quantitative real-time PCR. The mtDNA content was normalized by nuclear DNA. Significant differences were determined by comparison with control treatment (** P<0.01; *** P<0.001). Data represents five independent experiments with similar results].
(§3) As described in Non-Patent Document 1, the cell viability for a non-treated group was measured by an MTT assay. After incubation for an indicated time, 5 mg/ml of a 3-(4,5-dimethyl thiazol-2-yl)-2,5-diphenyltetrazoliumbromide (MTT) solution was added to a medium, and the cells were further incubated for 4 hours. Subsequently, all of the medium was removed, the same volume of a dimethyl sulfoxide (DMSO) solution was added for 15 minutes to dissolve formazan. Using a UV/VIS spectrophotometer, each well of a plate was measured at 540 nm to measure relative cell viability.

HT-29 = test: MTT assay of cell viability, HT-29 cells; type: cell-based, human; conditions: 20 μg/ml, over time
Description: as §2, §3

ATP5A1, SIRT3 and ATP5C1 = test: Immunoprecipitation/immunoblotting in HCT116 cells; type: cell-based, human; conditions: IP/IB
Description: as §2
For immunoprecipitation, cells were obtained, and then lysed in an NP-40 buffer supplemented with a complete protease inhibitor cocktail (Roche). After pre-purification with A/G agarose beads at 4° C. for 1 hour, a whole cell lysate was used for immunoprecipitation with indicated antibodies. […]
For immunoblotting, polypeptides were subjected to electrophoresis (PAGE) with an SDS-polyacrylamide gel, and then transferred to a PVDF membrane (Bio-Rad) for separation. […] Antibody binding was visualized by chemiluminescence (ECL; Millipore) and detected by a Vilber chemiluminescence analyzer (Fusion SL 3; Vilber Lourmat).

HCT116 xenografts = test: HCT116 xenograft mouse model, antitumor activity; type: in vivo, nude mouse; conditions: HCT116 xenograft mice

In the case of GRKKRRQRRR (Tat) [reference compound], the “blocking of mitochondrial targeting of GRA8” value [1] is reported as “impossible”.

For “GRKKRRQRRR-G-YRFTVQTTQN (GRKKRRQRRRGYRFTVQTTQN; Tat-GRA8-(260-269)) [Tat-GRA8 (aa 260-269)]”, the “prevention of GRA8-ATP5A1/SIRT3 interaction” value [2] was “able to effectively prevent”.

With “GRKKRRQRRR-G-ATATTTTTTR (GRKKRRQRRRGATATTTTTTR; Tat-GRA8-(213-222)) [Tat-GRA8 (aa 213-222)]” the “blocking of mitochondrial targeting of GRA8” value [1] was “can effectively block mitochondrial targeting”.

B1: rGRA8: recombinant His-tagged Toxoplasma gondii dense granule antigen 8, 269 amino acids; conventional GRA8-derived peptide (protein)
chain: MALPLRVSATVFVVFAVFGVARAMNGPLSYHPSSYGASYPNPSNPLHGMPKPENPVRPPPPGFHPSVIPNPPYPLGTPAGMPQPEVPPLQHPPPTGSPPAAAPQPPYPVGTPGMPQPEIPPVHRPPPPGFRPEVAPVPPYPVGTPTGMPQPEIPAVHHPFPYVTTTTTAAPRVLVYKIPYGGAAPPRAPPVPPRMGPSDISTHVRGAIRRQPATATTTTTTRNVLLRTAILAAAAATLIALFRQRPLFTEGVRMFPDFQYRFTVQTTQN
modifications: left off: small tags and cut ends
notes: recombinant His-tagged Toxoplasma gondii dense granule antigen 8, 269 amino acids; conventional GRA8-derived peptide
B1 was tested, and the “cell death in HCT116” value (HCT116 cells; 20 μg/ml, over time, MTT) was “induced cell death”, the “IC50 (HCT116 cell death)” value (HCT116 cells; HCT116 cells, MTT (FIG. 4A)) was 20 µg/mL and the “cell death in HT-29” value (HT-29) was “induced cell death”. The ATP5A1 deacetylation (ATP5A1, SIRT3 and ATP5C1) was “increased ATP5A1 deacetylation”, the “binding of rGRA8 to ATP5A1, SIRT3 and ATP5C1” value (ATP5A1, SIRT3 and ATP5C1) was “significantly increased” and the “IC50 (antitumor activity in xenograft)” value (HCT116 xenografts) was 10 mg/kg.
